Molecular target: the molecule itself
Experiment: SEC

B1: (S)-2-hydroxypropylphosphonic acid epoxidase from Pseudomonas syringae (enzyme, Pseudomonas syringae PB-5123, UniProt Q9JN69 1-190, looked up)
chain: MDVRTLAVGKAHLEALLATRKMTLEHLQDVRHDATQVYFDGLEHLQNVAQYLAIPLSEFFVGQTQSDLDDGVKIARRNGGFKREEIRGGVHYYTYEHLVTTNQDPGLMALRLDLHSDDEQPLRLNGGHGSREIVYVTRGAVRVRWVGDNDELKEDVLNEGDSIFILPNVPHSFTNHVGGAKSEIIAINYG
modifications: Tyr95 highly likely post-translationally hydroxylated to DOPA
  stoichiometry N: 3
